Consider 2 substances from US20070142277A1.

In the assay the target is endogenously expressed APP isoforms in SH-SY5Y cells (human) (UniProt P05067). Nature of the assay: cell-based or functional assay.
endogenously expressed APP isoforms in SH-SY5Y cells (human), sequence (P05067 18-770): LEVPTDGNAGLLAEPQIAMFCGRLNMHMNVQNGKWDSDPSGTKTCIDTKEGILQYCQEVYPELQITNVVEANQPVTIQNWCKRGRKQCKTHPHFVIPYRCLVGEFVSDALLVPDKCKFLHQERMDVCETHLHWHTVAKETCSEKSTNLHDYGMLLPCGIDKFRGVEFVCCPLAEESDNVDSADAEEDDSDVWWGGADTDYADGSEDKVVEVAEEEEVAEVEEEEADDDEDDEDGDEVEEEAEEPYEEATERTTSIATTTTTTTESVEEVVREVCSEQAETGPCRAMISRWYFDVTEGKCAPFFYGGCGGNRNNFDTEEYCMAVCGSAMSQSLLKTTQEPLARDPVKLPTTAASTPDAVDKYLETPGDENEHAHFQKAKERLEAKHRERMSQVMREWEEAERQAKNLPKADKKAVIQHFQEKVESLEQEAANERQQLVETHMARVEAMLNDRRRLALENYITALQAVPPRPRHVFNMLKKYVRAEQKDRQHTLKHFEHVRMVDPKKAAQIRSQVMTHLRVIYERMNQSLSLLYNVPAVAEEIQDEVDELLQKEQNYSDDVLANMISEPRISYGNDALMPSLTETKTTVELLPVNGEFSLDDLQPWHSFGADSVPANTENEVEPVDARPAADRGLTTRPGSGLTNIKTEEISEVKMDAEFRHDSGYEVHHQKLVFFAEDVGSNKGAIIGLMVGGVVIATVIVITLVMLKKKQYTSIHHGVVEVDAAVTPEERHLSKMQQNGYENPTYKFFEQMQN

“BACE455 (from UniProt P56817 46-501) (enzyme)”: the Aβ1-40 release, expressed as the percentage of control (cells transfected with the empty vector DNA) was 200 % of control and the Aβ release (% of control), Aβ1-40 ELISA of conditioned medium of transfected SH-SY5Y cells is 195 % of control.

Consider “BACE501 (from UniProt P56817 46-501) (enzyme)”, for which the Aβ release (% of control), Aβ1-40 ELISA of conditioned medium of transfected SH-SY5Y cells is 193 % of control.
